Reference: article PMC9907115

How the values were obtained:
Experiment in all cases: cross-linking
[1] = target: ^3FLAGPrgH (S. Typhimurium) (UniProt P41783)
[2] = target: ^3FLAGSpaO (S. Typhimurium) (UniProt P40699)
[3] = target: OrgB^R21^p^Bpa (OrgB^M45 variant) (S. Typhimurium)

UniProt P40699, sequence (P40699 whole entry): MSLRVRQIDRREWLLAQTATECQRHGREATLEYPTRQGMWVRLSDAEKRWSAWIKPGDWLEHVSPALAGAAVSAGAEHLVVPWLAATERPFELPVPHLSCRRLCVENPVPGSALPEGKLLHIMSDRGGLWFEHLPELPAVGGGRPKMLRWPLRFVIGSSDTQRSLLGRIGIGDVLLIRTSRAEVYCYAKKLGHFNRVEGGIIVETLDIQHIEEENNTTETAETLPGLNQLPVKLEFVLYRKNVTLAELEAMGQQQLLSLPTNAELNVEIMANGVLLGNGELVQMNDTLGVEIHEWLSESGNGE
UniProt P41783, sequence (P41783 whole entry): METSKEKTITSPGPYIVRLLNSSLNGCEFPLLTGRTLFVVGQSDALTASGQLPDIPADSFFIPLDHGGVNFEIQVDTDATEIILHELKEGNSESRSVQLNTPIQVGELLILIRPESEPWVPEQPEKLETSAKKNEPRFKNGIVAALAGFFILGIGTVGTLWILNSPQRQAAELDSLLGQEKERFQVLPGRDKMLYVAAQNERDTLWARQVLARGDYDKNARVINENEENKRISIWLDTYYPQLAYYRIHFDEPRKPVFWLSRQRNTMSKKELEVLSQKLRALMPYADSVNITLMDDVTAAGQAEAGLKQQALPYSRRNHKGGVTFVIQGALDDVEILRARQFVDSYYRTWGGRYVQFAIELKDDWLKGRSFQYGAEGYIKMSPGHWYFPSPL

Substance: OrgA^S70^p^Bpa/L104^p^Bpa (natural protein)
- stoichiometry N (PrgH per OrgA) [1]: 2

Substance: OrgB^K20^p^Bpa (OrgB^M45 variant) (natural protein)
- stoichiometry N (OrgB per SpaO) [2]: 2

Substance: OrgB^R21^p^Bpa (OrgB^M45 variant) (natural protein)
- stoichiometry N [3]: 2
